{
  "source": "IntAct's records for PubMed 17586626",
  "parents": {"B1": {"name": "Multidrug resistance protein MexA (Pseudomonas aeruginosa (strain ATCC 15692 / PAO1 / 1C / PRS 101 / LMG 12228)), P52477 (parent)", "chain": "MQRTPAMRVLVPALLVAISALSGCGKSEAPPPAQTPEVGIVTLEAQTVTLNTELPGRTNAFRIAEVRPQVNGIILKRLFKEGSDVKAGQQLYQIDPATYEADYQSAQANLASTQEQAQRYKLLVADQAVSKQQYADANAAYLQSKAAVEQARINLRYTKVLSPISGRIGRSAVTEGALVTNGQANAMATVQQLDPIYVDVTQPSTALLRLRRELASGQLERAGDNAAKVSLKLEDGSQYPLEGRLEFSEVSVDEGTGSVTIRAVFPNPNNELLPGMFVHAQLQEGVKQKAILAPQQGVTRDLKGQATALVVNAQNKVELRVIKADRVIGDKWLVTEGLNAGDKIITEGLQFVQPGVEVKTVPAKNVASAQKADAAPAKTDSKG", "partner": "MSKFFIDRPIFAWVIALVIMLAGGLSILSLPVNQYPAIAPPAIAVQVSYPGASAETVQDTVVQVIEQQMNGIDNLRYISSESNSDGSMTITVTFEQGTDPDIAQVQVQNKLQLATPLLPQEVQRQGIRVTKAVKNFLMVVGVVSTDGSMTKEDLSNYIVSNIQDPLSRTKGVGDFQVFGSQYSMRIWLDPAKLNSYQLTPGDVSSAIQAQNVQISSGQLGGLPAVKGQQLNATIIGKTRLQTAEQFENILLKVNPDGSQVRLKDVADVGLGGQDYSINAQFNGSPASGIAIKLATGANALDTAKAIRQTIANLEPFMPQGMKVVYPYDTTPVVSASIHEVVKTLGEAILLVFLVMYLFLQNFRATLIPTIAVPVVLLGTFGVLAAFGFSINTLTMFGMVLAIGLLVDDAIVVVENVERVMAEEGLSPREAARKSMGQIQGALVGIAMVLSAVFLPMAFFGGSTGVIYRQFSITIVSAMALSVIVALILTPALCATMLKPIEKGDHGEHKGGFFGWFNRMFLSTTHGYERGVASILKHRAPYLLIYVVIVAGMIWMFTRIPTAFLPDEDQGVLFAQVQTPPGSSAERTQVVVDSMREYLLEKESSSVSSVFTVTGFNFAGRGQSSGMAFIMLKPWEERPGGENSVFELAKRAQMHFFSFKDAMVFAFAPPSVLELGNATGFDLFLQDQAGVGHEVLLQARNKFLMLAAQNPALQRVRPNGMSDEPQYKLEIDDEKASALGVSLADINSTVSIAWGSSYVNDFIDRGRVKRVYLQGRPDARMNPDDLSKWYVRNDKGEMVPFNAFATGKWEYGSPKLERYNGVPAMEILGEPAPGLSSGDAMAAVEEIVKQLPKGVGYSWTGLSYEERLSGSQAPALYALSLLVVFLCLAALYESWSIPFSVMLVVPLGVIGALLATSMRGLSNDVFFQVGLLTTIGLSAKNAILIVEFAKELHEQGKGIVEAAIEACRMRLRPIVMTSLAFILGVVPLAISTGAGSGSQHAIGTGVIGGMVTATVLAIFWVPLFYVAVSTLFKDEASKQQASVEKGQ"}, "B2": {"name": "Multidrug resistance protein MexB (Pseudomonas aeruginosa (strain ATCC 15692 / PAO1 / 1C / PRS 101 / LMG 12228)), P52002 (parent)", "chain": "B1 partner", "partner": "B1 chain"}},
  "data": [
    {"variants_of": "B1", "conditions": "with mexb_pseae mexB, P52002", "values": [
      {"variant": "MQRTPAMRVLVPALLVAISALSGCGKSEAPPPAQTPEVGIVTLEAQTVTLNTELPGRTNAFRIAEVRPQVNGIILKRLFKEGSDVKAGQQLYQIDPATYEADYQSAQANLASTQEQAQRYKLLVADQAVSKQQYADANAAYLQSKAAVEQARINLRYTKVLSPISGRIGRSAVTEGALVTNGQANAMATVQQLDPIYVDVTQPSTALLRLRRELASGQLERAGDNAAKVSLKLEDGSQYPLEGRLEFSEVSVDEGTGSFTIRAVFPNPNNELLPGMFVHAQLQEGVKQKAILAPQQGVTRDLKGQATALVVNAQNKVELRVIKADRVIGDKWLVTEGLNAGDKIITEGLQFVQPGVEVKTVPAKNVASAQKADAAPAKTDSKG", "note": "[V259F]", "effect of a mutation on the interaction": "increasing interaction strength"},
      {"variant": "MQRTPAMRVLVPALLVAISALSGCGKSEAPPPAQTPEVGIVTLEAQTVTLNTELPGRTNAFRIAEMRPQVNGIILKRLFKEGSDVKAGQQLYQIDPATYEADYQSAQANLASTQEQAQRYKLLVADQAVSKQQYADANAAYLQSKAAVEQARINLRYTKVLSPISGRIGRSAVTEGALVTNGQANAMATVQQLDPIYVDVTQPSTALLRLRRELASGQLERAGDNAAKVSLKLEDGSQYPLEGRLEFSEVSVDEGTGSVTIRAVFPNPNNELLPGMFVHAQLQEGVKQKAILAPQQGVTRDLKGQATALVVNAQNKVELRVIKADRVIGDKWLVTEGLNAGDKIITEGLQFVQPGVEVKTVPAKNVASAQKADAAPAKTDSKG", "note": "[V66M]", "effect of a mutation on the interaction": "increasing interaction strength"}
    ]},
    {"variants_of": "B2", "conditions": "with mexa_pseae mexA, P52477", "values": [
      {"variant": "G220S", "effect of a mutation on the interaction": "decreasing interaction strength"}
    ]}
  ]
}
